The values that follow come from the supplement of paper PMC5998384.

The test system of data set [1] is HeLa Kyoto. Nature of the data set: solubility in G1/S (NP-40 vs SDS abundance) (log2 ratio); higher = more soluble. The note with it: cell cycle stage: G1/S.
In data set [2] the test system is HeLa Kyoto. Nature of the data set: melting temperature (median over replicates), in situ; higher = more thermally stable.
Data set [3] deals with HeLa Kyoto. Nature of the data set: solubility change mitosis vs G1/S (difference of NP-40 vs SDS log2 ratios) (log2 ratio difference); higher = more soluble in mitosis.
Data set [4] deals with HeLa Kyoto. Nature of the data set: thermal stability score vs G1/S (z-score of summed log2 fold changes over temperatures); higher = more thermally stable than in G1/S.
[5] abbreviates: cell cycle stage: early G1 (4.5 h after nocodazole release).
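Wherever melting temperature (median over replicates), in situ is given: HeLa Kyoto cells synchronized by double thymidine or nocodazole block, proteins quantified by TMT10plex mass spectrometry, three independent biological replicates.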
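Wherever solubility change mitosis vs G1/S (difference of NP-40 vs SDS log2 ratios) is given: synchronized HeLa Kyoto cells (double thymidine block for G1/S, nocodazole release for mitosis), protein amounts in NP-40 versus SDS lysates quantified by mass spectrometry, three biological replicates.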
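Wherever solubility in G1/S (NP-40 vs SDS abundance) is given: HeLa Kyoto cells arrested at G1/S by double thymidine block, proteins quantified by TMT10plex mass spectrometry in mild NP-40 versus SDS extracts, three biological replicates.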
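Wherever thermal stability score vs G1/S (z-score of summed log2 fold changes over temperatures) is given: synchronized HeLa Kyoto cells, proteins quantified by TMT10plex mass spectrometry, three biological replicates, mitosis taken 0.5 h after nocodazole release, G1/S directly after double thymidine block.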

For “MPLLFLERFPWPSLRTYTGLSGLALLGTIISAYRALSQPEAGPGEPDQLTASLQPEPPAPARPSAGGPRARDVAQYLLSDSLFVWVLVNTACCVLMLVAKLIQCIVFGPLRVSERQHLKDKFWNFIFYKFIFIFGVLNVQTVEEVVMWCLWFAGLVFLHLMVQLCKDRFEYLSFSPTTPMSSHGRVLSLLVAMLLSCCGLAAVCSITGYTHGMHTLAFMAAESLLVTVRTAHVILRYVIHLWDLNHEGTWEGKGTYVYYTDFVMELTLLSLDLMHHIHMLLFGNIWLSMASLVIFMQLRYLFHEVQRRIRRHKNYLRVVGNMEARFAVATPEELAVNNDDCAICWDSMQAARKLPCGHLFHNSCLRSWLEQDTSCPTCRMSLNIADNNRVREEHQGENLDENLVPVAAAEGRPRLNQHNHFFHFDGSRIASWLPSFSVEVMHTTNILGITQASNSQLNAMAHQIQEMFPQVPYHLVLQDLQLTRSVEITTDNILEGRIQVPFPTQRSDSIRPALNSPVERPSSDQEEGETSAQTERVPLDLSPRLEETLDFGEVEVEPSEVEDFEARGSRFSKSADERQRMLVQRKDELLQQARKRFLNKSSEDDAASESFLPSEGASSDPVTLRRRMLAAAAERRLQKQQTS [AMFR]”, the “solubility in G1/S (log2)” value in data set [1] is -0.387. Moreover, the melting temperature in data set [2] (cell cycle stage: G1/S) and in data set [2] (cell cycle stage: mitosis) was 51.3 °C throughout. Also, the “solubility change mitosis (log2)” value in data set [3] is -0.081. Also, the results for the thermal stability score in data set [4] (setting [5]) and in data set [4] (cell cycle stage: mitosis) were 0.15 and -0.174, respectively.

Take “MPLTGVEPARMNRKKGDKGFESPRPYKLTHQVVCINNINFQRKSVVGFVELTIFPTVANLNRIKLNSKQCRIYRVRINDLEAAFIYNDPTLEVCHSESKQRNLNYFSNAYAAAVSAVDPDAGNGELCIKVPSELWKHVDELKVLKIHINFSLDQPKGGLHFVVPSVEGSMAERGAHVFSCGYQNSTRFWFPCVDSYSELCTWKLEFTVDAAMVAVSNGDLVETVYTHDMRKKTFHYMLTIPTAASNISLAIGPFEILVDPYMHEVTHFCLPQLLPLLKHTTSYLHEVFEFYEEILTCRYPYSCFKTVFIDEAYVEVAAYASMSIFSTNLLHSAMIIDETPLTRRCLAQSLAQQFFGCFISRMSWSDEWVLKGISGYIYGLWMKKTFGVNEYRHWIKEELDKIVAYELKTGGVLLHPIFGGGKEKDNPASHLHFSIKHPHTLSWEYYSMFQCKAHLVMRLIENRISMEFMLQVFNKLLSLASTASSQKFQSHMWSQMLVSTSGFLKSISNVSGKDIQPLIKQWVDQSGVVKFYGSFAFNRKRNVLELEIKQDYTSPGTQKYVGPLKVTVQELDGSFNHTLQIEENSLKHDIPCHSKSRRNKKKKIPLMNGEEVDMDLSAMDADSPLLWIRIDPDMSVLRKVEFEQADFMWQYQLRYERDVVAQQESILALEKFPTPASRLALTDILEQEQCFYRVRMSACFCLAKIANSMVSTWTGPPAMKSLFTRMFCCKSCPNIVKTNNFMSFQSYFLQKTMPVAMALLRDVHNLCPKEVLTFILDLIKYNDNRKNKFSDNYYRAEMIDALANSVTPAVSVNNEVRTLDNLNPDVRLILEEITRFLNMEKLLPSYRHTITVSCLRAIRVLQKNGHVPSDPALFKSYAEYGHFVDIRIAALEAVVDYTKVDRSYEELQWLLNMIQNDPVPYVRHKILNMLTKNPPFTKNMESPLCNEALVDQLWKLMNSGTSHDWRLRCGAVDLYFTLFGLSRPSCLPLPELGLVLNLKEKKAVLNPTIIPESVAGNQEAANNPSSHPQLVGFQNPFSSSQDEEEIDMDTVHDSQAFISHHLNMLERPSTPGLSKYRPASSRSALIPQHSAGCDSTPTTKPQWSLELARKGTGKEQAPLEMSMHPAASAPLSVFTKESTASKHSDHHHHHHHEHKKKKKKHKHKHKHKHKHDSKEKDKEPFTFSSPASGRSIRSPSLSD [TAF2]”: the “solubility in G1/S (log2)” value in data set [1] was -0.657. Further, the melting temperature in data set [2] (cell cycle stage: G1/S) is 49.6 °C; in data set [2] (cell cycle stage: mitosis) it was 50.2 °C. Moreover, in data set [3], the “solubility change mitosis (log2)” value turned out to be 0.123. In addition, the thermal stability score in data set [4] (setting [5]) stood at 0.286; in data set [4] (cell cycle stage: mitosis), 0.175.

Turning to “MPLVKRNIDPRHLCHTALPRGIKNELECVTNISLANIIRQLSSLSKYAEDIFGELFNEAHSFSFRVNSLQERVDRLSVSVTQLDPKEEELSLQDITMRKAFRSSTIQDQQLFDRKTLPIPLQETYDVCEQPPPLNILTPYRDDGKEGLKFYTNPSYFFDLWKEKMLQDTEDKRKEKRKQKQKNLDRPHEPEKVPRAPHDRRREWQKLAQGPELAEDDANLLHKHIEVANGPASHFETRPQTYVDHMDGSYSLSALPFSQMSELLTRAEERVLVRPHEPPPPPPMHGAGDAKPIPTCISSATGLIENRPQSPATGRTPVFVSPTPPPPPPPLPSALSTSSLRASMTSTPPPPVPPPPPPPATALQAPAVPPPPAPLQIAPGVLHPAPPPIAPPLVQPSPPVARAAPVCETVPVHPLPQGEVQGLPPPPPPPPLPPPGIRPSSPVTVTALAHPPSGLHPTPSTAPGPHVPLMPPSPPSQVIPASEPKRHPSTLPVISDARSVLLEAIRKGIQLRKVEEQREQEAKHERIENDVATILSRRIAVEYSDSEDDSEFDEVDWLE [WASF1]”, in data set [1], the “solubility in G1/S (log2)” value worked out at 0.124. Further, the melting temperature in data set [2] (cell cycle stage: G1/S) came out at 51.5 °C; in data set [2] (cell cycle stage: mitosis), 52 °C. Also, the “solubility change mitosis (log2)” value in data set [3] worked out at 0.025. For the same sequence, the thermal stability score is -0.0852 in data set [4] (setting [5]) and 0.459 in data set [4] (cell cycle stage: mitosis).

Consider “MPMWAGGVGSPRRGMAPASTDDLFARKLRQPARPPLTPHTFEPRPVRGPLLRSGSDAGEARPPTPASPRARAHSHEEASRPAATSTRLFTDPLALLGLPAEEPEPAFPPVLEPRWFAHYDVQSLLFDWAPRSQGMGSHSEASSGTLASAEDQAASSDLLHGAPGFVCELGGEGELGLGGPASPPVPPALPNAAVSILEEPQNRTSAYSLEHADLGAGYYRKYFYGKEHQNFFGMDESLGPVAVSLRREEKEGSGGGTLHSYRVIVRTTQLRTLRGTISEDALPPGPPRGLSPRKLLEHVAPQLSPSCLRLGSASPKVPRTLLTLDEQVLSFQRKVGILYCRAGQGSEEEMYNNQEAGPAFMQFLTLLGDVVRLKGFESYRAQLDTKTDSTGTHSLYTTYQDHEIMFHVSTMLPYTPNNQQQLLRKRHIGNDIVTIVFQEPGSKPFCPTTIRSHFQHVFLVVRAHTPCTPHTTYRVAVSRTQDTPAFGPALPAGGGPFAANADFRAFLLAKALNGEQAAGHARQFHAMATRTRQQYLQDLATNEVTTTSLDSASRFGLPSLGGRRRAAPRGPGAELQAAGSLVWGVRAAPGARVAAGAQASGPEGIEVPCLLGISAEALVLVAPRDGRVVFNCACRDVLAWTFSEQQLDLYHGRGEAITLRFDGSPGQAVGEVVARLQLVSRGCETRELALPRDGQGRLGFEVDAEGFVTHVERFTFAETAGLRPGARLLRVCGQTLPSLRPEAAAQLLRSAPKVCVTVLPPDESGRPRRSFSELYTLSLQEPSRRGAPDPVQDEVQGVTLLPTTKQLLHLCLQDGGSPPGPGDLAEERTEFLHSQNSLSPRSSLSDEAPVLPNTTPDLLLATTAKPSVPSADSETPLTQDRPGSPSGSEDKGNPAPELRASFLPRTLSLRNSISRIMSEAGSGTLEDEWQAISEIASTCNTILESLSREGQPIPESGDPKGTPKSDAEPEPGNLSEKVSHLESMLRKLQEDLQKEKADRAALEEEVRSLRHNNRRLQAESESAATRLLLASKQLGSPTADLA [SIPA1]”, for which, in data set [1], the “solubility in G1/S (log2)” value was -0.217. The melting temperature amounted to 50.8 °C in data set [2] (cell cycle stage: G1/S) and 51.4 °C in data set [2] (cell cycle stage: mitosis). Further, in data set [3], the “solubility change mitosis (log2)” value came to 0.0512. The thermal stability score in data set [4] (setting [5]) turned out to be 1.19; in data set [4] (cell cycle stage: mitosis), 0.467.

As to “MPNIKIFSGSSHQDLSQKIADRLGLELGKVVTKKFSNQETCVEIGESVRGEDVYIVQSGCGEINDNLMELLIMINACKIASASRVTAVIPCFPYARQDKKDKSRAPISAKLVANMLSVAGADHIITMDLHASQIQGFFDIPVDNLYAEPAVLKWIRENISEWRNCTIVSPDAGGAKRVTSIADRLNVDFALIHKERKKANEVDRMVLVGDVKDRVAILVDDMADTCGTICHAADKLLSAGATRVYAILTHGIFSGPAISRINNACFEAVVVTNTIPQEDKMKHCSKIQVIDISMILAEAIRRTHNGESVSYLFSHVPL [PRPS1]”, the “solubility in G1/S (log2)” value in data set [1] is -0.185. Besides, the melting temperature in data set [2] (cell cycle stage: G1/S) turned out to be 57.3 °C; in data set [2] (cell cycle stage: mitosis), 57.4 °C. In addition, the “solubility change mitosis (log2)” value in data set [3] is -0.136. Besides, the thermal stability score is 1.55 in data set [4] (setting [5]) and 0.473 in data set [4] (cell cycle stage: mitosis).

As to “MPNIVLFSGSSHQDLSQRVADRLGLELGKVVTKKFSNQETSVEIGESVRGEDVYIIQSGCGEINDNLMELLIMINACKIASSSRVTAVIPCFPYARQDKKDKSRAPISAKLVANMLSVAGADHIITMDLHASQIQGFFDIPVDNLYAEPAVLQWIRENIAEWKNCIIVSPDAGGAKRVTSIADRLNVEFALIHKERKKANEVDRMVLVGDVKDRVAILVDDMADTCGTICHAADKLLSAGATKVYAILTHGIFSGPAISRINNAAFEAVVVTNTIPQEDKMKHCTKIQVIDISMILAEAIRRTHNGESVSYLFSHVPL [PRPS2]”, the “solubility in G1/S (log2)” value in data set [1] is -0.014. In addition, the melting temperature in data set [2] (cell cycle stage: G1/S) came to 55.1 °C; in data set [2] (cell cycle stage: mitosis), 55.9 °C. The “solubility change mitosis (log2)” value in data set [3] was -0.112. In addition, the figures for the thermal stability score in data set [4] (setting [5]) and in data set [4] (cell cycle stage: mitosis) were 3.16 and 2.12, respectively.
